# Data taken from publication PMC5667506, “Potent and selective inhibition of SH3 domains with dirhodium metalloinhibitors” (Chemical Science, 2015).
# Entries after “also recorded” stand apart in the source; their conditions may differ. Where two headings read alike, the source gives them in different places. Rh2(OAc)3 = dirhodium(II) triacetate, bound to the side-chain carboxylate
# Tests used:
# [1] = biological target: T1, Abl SH3 domain (Homo sapiens, UniProt P00519); assay: ITC binding to Abl SH3 domain; details: for -TΔS / ΔG / ΔH / Kd: 25 °C
# T1 construct: The abl SH3 domain was amplified by PCR using Phusion DNA polymerase; GST (N, cleaved yes); made in house; host or cells: E. coli BL21 (DE3)
# T1 sequence (P00519 60-121): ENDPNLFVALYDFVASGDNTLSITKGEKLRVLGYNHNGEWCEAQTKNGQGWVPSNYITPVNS
# Method: (§1) All chemical reagents were purchased from Sigma-Aldrich and were used without further purification.
# (§2) Peptide synthesis. All peptides were synthesized manually or with an AAPPTEC APEX 396 Automated Multipeptide Synthesizer using standard solid-phase Fmoc protocols.1,2 Peptides were prepared as C-terminal amides using Rink amide MBHA resin (AAPPTEC) and were acetylated at the N-terminus prior to cleavage from the resin. Peptides and metallopeptides were purified by reverse-phase HPLC.
# (§3) HPLC separation. Reverse-phase HPLC was performed on a Shimadzu CBM-20A instrument with Phenomenex Jupiter 4μ Proteo 90A (250 × 15 mm preparative) and Phenomenex Jupiter 4μ Proteo 90A (250 × 4.6 mm analytical) columns. The columns were eluted with a gradient of acetonitrile in water (10-90%) (flow rates of 8 mL/min and 1 mL/min for preparative and analytical columns, respectively). Trifluoroacetic acid (0.1%) was added to all eluents.
# (§4) FPLC separation. Analytical FPLC was performed on an ÄKTA instrument with Superdex Peptide PE 7.5/300 column. The column was equilibrated with buffer (150 mM NaCl, 50 mM Tris, pH 7.0) at flow rate of 0.2 mL/min.
# (§5) ITC analysis. ITC experiments were carried out on a VP-ITC instrument (MicroCal) at 25 °C. Titrations of 275 μM peptide into 18 μM SH3 domain proteins were used for all titrations, except for the titration of S2ERh into Lyn SH3 domain, where the lower concentrations of 69 µM S2ERh peptide and 4 µM Lyn SH3 were used to attain a c-value for the titration within the accepted limts for ITC experiments ([…]).3
# (§6) Heats of dilutions were measured independently for each experiment by titrating 275 μM peptide into buffer (20 mM phosphate buffer, pH 7, 150 mM NaCl, 1 mM EDTA). All experimental data were fitted using a one set of sites binding model in Origin software (MicroCal) except for the data with Hck SH3 domain. With Hck only, the non-peptide specific binding of dirhodium tetraacetate to Hck SH3 domain could not be treated as negligible, despite the very weak interaction (88 µM), due to the larger enthalpy contribution observed for non-specific binding to this SH3 domain, so the titrations of peptide into Hck were fitted using a 2 set of sites binding model where the stoichiometry for the second set of sites was fixed at 2.0. […]
# (§7) Mass spectrometry. ESI-MS was performed on a Bruker Daltonics micrOTOF instrument.
# (§8) Known compounds and proteins. Several metallopeptides (S2ERh, L3ERh, R5ERh, and 13DRh) were reported previously and were prepared by known protocols;4 alkyne-diazo 3,5 3-azido-7-hydroxycoumarin6 were synthesized following reported procedures; fyn, yes, lck, and src SH3 protein domains were prepared following published procedures.5 Abl, hck, and lyn SH3 domain plasmids were adapted from the previously reported genes;7 the gene templates were obtained from Addgene, ID
# [2] = biological target: T2, Lyn SH3 domain (Homo sapiens, UniProt P07948); assay: ITC binding of metallopeptides to Lyn SH3 domain; details: 25 °C
# T2 construct: The lyn SH3 domain was amplified by PCR using Phusion DNA polymerase; GST (N, cleaved yes); made in house; host or cells: E. coli BL21 (DE3)
# T2 sequence (P07948 62-121): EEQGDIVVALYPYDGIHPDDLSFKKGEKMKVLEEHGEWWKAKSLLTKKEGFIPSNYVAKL
# Excerpt: The His96 is unique among Src-family sequences, and the His78 appears only in Hck and Lck. Individual amino-acid alterations are the only factors that might distinguish the nearly identical secondary structures and peptide-binding preferences of Src-family SH3 domains (cf. Fig. 1a and b). Based on a Src-family SH3-binding sequence (VSL12),[37] known to bind with similar affinity across Src-family SH3 domains,[38] we made metallopeptides with rhodium in different sites near the beginning of the SH3-binding peptide. […] The optimal metallopeptide, S2E^Rh, bound to Lyn with 6 nM affinity. The accuracy of ITC data is reduced for C values >1000 (C = [protein]/K d). Under these conditions the distribution of data points on the isotherm reduces the precision of the global fit. Since the enthalpic contributions to binding in the formation of the complexes described in this work were high, we were able to use a low protein concentration (4 μM) which ensured that our C values were well below this upper range. […] In broad terms, the thermodynamics—favourable enthalpy and unfavourable entropy—are consistent with previous examinations of peptide–SH3 binding (see Table S1 ^† for thermodynamic data).[39] Moving the location of the rhodium center toward the N-terminus, away from the histidine, led to a drop in binding affinity. The N13D^Rh metallopeptide, a convenient negative control with the rhodium center too far for histidine interactions, binds with micromolar activity, similar to simple SH3 binding of the parent peptide. We conclude that the vast affinity improvement is due to rhodium coordination to unique histidine residue(s).
# as §1, §2
# as §3, with “eluents. […]” for “eluents.”
# as §5, §6, §7
# Known compounds and proteins. Several metallopeptides (S2ERh, L3ERh, R5ERh, and 13DRh) were reported previously and […]
# [3] = biological target: T3, Yes SH3 domain (Homo sapiens, UniProt P07947); assay: ITC binding to Yes SH3 domain
# T3 construct: fyn, yes, lck, and src SH3 protein domains were prepared following published procedures; made in house
# T3 sequence (P07947 91-152 limits assumed): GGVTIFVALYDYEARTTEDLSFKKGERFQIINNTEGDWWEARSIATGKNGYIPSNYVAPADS
# Method: as §1, §2, §3, §4, §5, §6, §7, §8
# [4] = biological target: T4, Lck SH3 domain (Homo sapiens, UniProt P06239); assay: ITC binding to Lck SH3 domain; details: 25 °C
# T4 construct: fyn, yes, lck, and src SH3 protein domains were prepared following published procedures; made in house
# T4 sequence (P06239 61-121 limits assumed): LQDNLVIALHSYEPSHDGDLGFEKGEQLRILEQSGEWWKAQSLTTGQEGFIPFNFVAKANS
# Method: (§9) All chemical reagents were purchased from Sigma-Aldrich and were used without further purification. […]
# as §5, §6
# Known compounds and proteins. […]
# [5] = biological target: T5, Hck SH3 domain (Homo sapiens, UniProt P08631); assay: ITC binding to Hck SH3 domain (two-sets-of-sites fit); details: 25 °C, high affinity specific site
# T5 construct: The hck SH3 domain was amplified by PCR using Phusion DNA polymerase; GST (N, cleaved yes); made in house; host or cells: E. coli BL21 (DE3)
# T5 sequence (P08631 77-139): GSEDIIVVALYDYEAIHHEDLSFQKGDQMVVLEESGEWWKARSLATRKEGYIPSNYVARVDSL
# Method: as §1, §2
# as §3, with “eluents. […]” for “eluents.”
# as §5, §6, §7
# as §8, with “ID […]” for “ID”
# Table S1. Table of the thermodynamic parameters for binding of metallopeptides to SH3 domains, determined by isothermal […]
# Protein Peptide Stoichiometry Kd ΔH -TΔS ΔG
# (nM) (kcal mol-1) (kcal mol-1) (kcal mol-1)
# * The binding isotherms for metallopeptide interactions with Hck were fitted using a two -sets-of-sites model with the stoichiometry for the second set of sites fixed to 2.0. The second set of binding sites was used to account for the weak, but not negligable, binding of the peptide to another surface of Hck SH3 domain, presumably through non-specific interactions of the dirhodium tetraacetate group. The thermodynamics for the high affinity specific binding site interaction are provided in this
# [6] = biological target: Abl; parameters: method as in PMID 8718852; details: read-out: affinity for Abl; cited from earlier work
# [7] = biological target: T6, Full-length Lyn kinase (GST-tagged Lyn B) (Homo sapiens, UniProt P07948); assay: Lyn kinase activation assay (ADP-Glo Kinase Assay); format: biochemical; details: 74 nM Lyn, 5 min
# T6 construct: Full-length Lyn kinase (74 nM) was treated with substrate peptide and ATP; purchased Promega
# T6 sequence (P07948 1-491 isoform P07948-2): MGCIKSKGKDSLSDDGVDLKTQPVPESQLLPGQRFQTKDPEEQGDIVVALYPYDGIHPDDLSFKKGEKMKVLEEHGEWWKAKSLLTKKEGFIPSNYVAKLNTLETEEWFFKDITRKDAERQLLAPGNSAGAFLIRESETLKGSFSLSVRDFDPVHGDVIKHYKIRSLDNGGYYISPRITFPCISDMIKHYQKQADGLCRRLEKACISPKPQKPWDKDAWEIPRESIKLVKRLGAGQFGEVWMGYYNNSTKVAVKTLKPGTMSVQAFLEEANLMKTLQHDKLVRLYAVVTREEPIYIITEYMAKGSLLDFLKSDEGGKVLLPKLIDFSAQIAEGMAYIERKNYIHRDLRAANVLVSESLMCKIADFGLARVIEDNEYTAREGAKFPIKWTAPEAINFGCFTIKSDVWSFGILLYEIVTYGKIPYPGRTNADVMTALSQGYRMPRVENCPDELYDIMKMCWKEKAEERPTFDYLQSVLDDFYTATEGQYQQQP
# Method: We examined phosphorylation of a peptide substrate at low enzyme concentration (0.074 μM) and short reaction time (t = 5 min) to minimize the alternative autophosphorylation activation pathway (Fig. 6). Kinase activation with traditional ligands has typically required high ligand concentrations (∼1 mM) to overcome the intramolecular nature of the SH3–kinase domain interaction.
# Fig. 6 Activation of Lyn kinase activity by a metallopeptide, S2E^Rh, and the parent peptide, S2E. […] Full-length Lyn kinase (74 nM) was treated with substrate peptide and ATP. Kinase activity was measured after 5 min in an adaptation of reported methods.[5] See ESI ^† for details.
# as §9
# Kinase assay. ATP turnover by Lyn was measured using the ADP-GloTM Kinase Assay (Promega) according to the manufacturer’s protocol. Briefly, final concentrations of 72 μM ATP, 74 nM Lyn (GST-tagged Lyn B), and 240 μM substrate peptide (all from Promega) were combined in buffer (40 mM Tris, 50 μM dithiothreitol, 2 mM MnCl2 and 0.1 mg/mL BSA at pH 7.5) with a solution of the desired treatment (or control) in the same buffer for a final reaction volume of 5 µL. The kinase reaction was allowed to proceed at room temp. for 5 min from addition of ATP before the start of the ADP-Glo protocol halted the reaction. Chemiluminescence data were acquired on a Tecan Infinite M1000 microplate reader in white 384 well low volume plates (Corning Costar 3674) with an integration time of 250 ms per well. […]
# [8] = Yes SH3, ITC, 25 °C, read-out: SH3 Kd
compound,measurement,setting,value
APTE^RhSPPPPP [p40-Y4E^Rh],Stoichiometry,[1],1.2
same,-TΔS,[1],5.3 kcal/mol
same,ΔG,[1],-7.0 kcal/mol
same,ΔH,[1],-12.3 kcal/mol
E^RhPTYSPPPPP [p40-A1E^Rh],Stoichiometry,[1],1.0
same,-TΔS,[1],8.9 kcal/mol
same,ΔG,[1],-10.5 kcal/mol
same,ΔH,[1],-19.4 kcal/mol
"R5E^Rh: rhodium(II) metallopeptide based on Src-family SH3-binding sequence (VSL12), rhodium at residue 5; catalyst for Yes SH3 modification (VSLAERPLPPLPN; N-terminal acetyl, C-terminal amide)",Kd,[2],0.081 µM
same,Kd,[3]; [8],1.74 µM
"R6E^Rh: rhodium(II) metallopeptide based on Src-family SH3-binding sequence (VSL12), rhodium at residue 6 (VSLAREPLPPLPN; N-terminal acetyl, C-terminal amide)",Kd,[2],0.152 µM
same,Kd,[4],3.79 µM
same,Kd,[5],0.051 µM
"N13D^Rh: negative control metallopeptide with the rhodium center too far for histidine interactions (VSLARRPLPPLPD; N-terminal acetyl, C-terminal amide)",Kd,[2],1.2 µM
same,Kd,[1],8.85 µM
same,Kd,[4],0.239 µM
same,Kd,[5],0.544 µM
same,Kd,"[3]; Yes SH3, ITC, 25 °C, listed as N13DRh, read-out: SH3 Kd",0.238 µM
same,Kd,[3]; [8],0.301 µM
same,Kd,"[3]; Yes SH3, unit inferred, read-out: Affinity of designed rhodium(II) metallopeptides (Fig. 1d)",0.299 µM
APTYSPPPPP [p40],Kd,[6],0.4 µM
"P12D^Rh: metallopeptide with the rhodium core moved to the 12th residue (VSLARRPLPPLDN; N-terminal acetyl, C-terminal amide)",Kd,[4],0.079 µM
same,Kd,[5],2.31 µM
"L3E^Rh: rhodium(II) metallopeptide based on Src-family SH3-binding sequence (VSL12), rhodium at residue 3 (VSEARRPLPPLPN; N-terminal acetyl, C-terminal amide)",Kd,[2],0.03 µM
same,Kd,[5],0.052 µM
same,Kd,[5]; listed as L3ERh,0.022 µM
same,Kd,[3]; [8],3.75 µM
"CC(=O)[O-].CC(=O)[O-].CC(=O)[O-].CC(=O)[O-].[Rh+2].[Rh+2] [Rh2(OAc)4, reference compound]",-TΔS,[2],1.0 kcal/mol
same,Kd,[2],150 µM
same,ΔG,[2],-5.2 kcal/mol
same,ΔH,[2],-6.3 kcal/mol
same,Lyn kinase activation,[7],no activation; also recorded: had no effect on kinase activity
same,-TΔS,[5],-1.0 kcal/mol
same,Kd,[5],89 µM
same,ΔG,[5],-5.5 kcal/mol
same,ΔH,[5],-4.5 kcal/mol
E^RhPTYSPPPPP (Ac-E(Rh2(OAc)3)PTYSPPPPP-NH2; also: metal complex: Glu1 carboxylate bound to dirhodium(II) triacetate) [p40-A1E^Rh],Kd,[1],0.022 µM
